{
  "source": "paper doi:10.1101/2020.10.16.343392",
  "about": "(bioRxiv, 2020)",
  "proteins": {"B1": {"name": "EfgA (enhanced formaldehyde growth protein A) from Methylorubrum extorquens PA1 (natural protein)", "chain": "MHVTIEQAEKAIQAARAKAVELGTQMCIAIVDSGGNLKAFHRMDGAWVGSIDIAQKKAKTAVFFGMKTGQIGALSQPGGSLYGIEHSNQGLITFPGGIPIVDADGEMSGAIGVSGSSVENDDAVALAGASAIGDTELPDHPWRT"}},
  "biological_target": "the molecule itself",
  "assay": "crystal structure",
  "data": [
    {"protein": "B1", "values": [
      {"measurement": "stoichiometry N", "value": 4}
    ]}
  ]
}
